Data taken from paper PMC2698047.
Read-outs that look alike come from different tables or passages of the source.

Tests used:
Experiment in all cases: competition
[1] = molecular target: T1, TP0262 (TpCRP, CRP homolog) (Treponema pallidum subsp. pallidum, UniProt O83286 1-224)
T1 sequence: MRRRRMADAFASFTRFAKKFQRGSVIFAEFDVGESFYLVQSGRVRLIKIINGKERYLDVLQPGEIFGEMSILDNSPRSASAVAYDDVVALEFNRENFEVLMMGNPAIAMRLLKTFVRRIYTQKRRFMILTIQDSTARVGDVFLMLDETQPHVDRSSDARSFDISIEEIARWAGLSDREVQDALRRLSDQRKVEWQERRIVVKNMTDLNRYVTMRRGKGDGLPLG

[2] = molecular target: T1, TP0262 (TpCRP, CRP homolog); remark: listed apart in the source
[3] = molecular target: T1, TP0262 (TpCRP, CRP homolog); remark: listed apart in the source
E. coli CRP = E. coli CRP (Escherichia coli K12 MG1655, UniProt P0ACJ8 1-210)
E. coli CRP, sequence (P0ACJ8 whole entry): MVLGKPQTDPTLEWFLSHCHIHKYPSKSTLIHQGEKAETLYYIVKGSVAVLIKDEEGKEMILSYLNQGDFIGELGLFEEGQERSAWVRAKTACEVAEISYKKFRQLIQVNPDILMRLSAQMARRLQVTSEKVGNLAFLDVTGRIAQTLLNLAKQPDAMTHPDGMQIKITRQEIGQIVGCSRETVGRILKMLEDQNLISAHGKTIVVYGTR

B1: tprE competitor oligo (dsDNA)
DNA 1: TGCGTGTGTGTGTGGGCTCGTGCTG
DNA 2: CAGCACGAGCCCACACACACACGCA
[1]
  binding result: binds

B2: tprG competitor oligo (dsDNA)
DNA 1: GTCAGTGCTAGCAGTCACATAC
DNA 2: GTATGTGACTGCTAGCACTGAC
[2]
  binding result: binds

B3: tprJ competitor oligo (dsDNA)
DNA 1: GTTGTCAGTGCACGAGGAGGAG
DNA 2: CTCCTCCTCGTGCACTGACAAC
[3]
  binding result: binds

B4: lac competitor oligo (E. coli CRP site) (dsDNA)
DNA 1: AAATGTGATCTAGATCACATTT
DNA 2: AAATGTGATCTAGATCACATTT
E. coli CRP
  binding result: binds
